# Measurements reported in the array DNA melting data of Ke et al..
# Assay: melting temperature; melt of duplexes
# Conditions: sodium 0.0675 M; strand 1 µM
row,Substance,Tm
1,CGACGTGCCTAATGTGCTG+CAGCACATGCCGCACGTCG ((((((((...((((((((+))))))))...)))))))),48.5 °C
2,CGACGTGCAAAATGTGCTG+CAGCACATCTTGCACGTCG ((((((((((.((((((((+)))))))).)))))))))),54 °C
3,CGACGTGCTGCATGTGCTG+CAGCACATCTAGCACGTCG (((((((((..((((((((+))))))))..))))))))),52.4 °C
4,CGACGTGCGCGATGTGCTG+CAGCACATCTAGCACGTCG ((((((((..(((((((((+)))))))))..)))))))),55.5 °C
5,CGACGTGCTTGATGTGCTG+CAGCACATCTAGCACGTCG (((((((((.(((((((((+))))))))).))))))))),58.6 °C
6,CGACGTGCGCGATGTGCTG+CAGCACATCCCGCACGTCG (((((((((.(((((((((+))))))))).))))))))),59.2 °C
7,CGACGTGCGATATGTGCTG+CAGCACATAAGGCACGTCG ((((((((..(((((((((+)))))))))..)))))))),52 °C
8,CGACGTGCCCAATGTGCTG+CAGCACATTGAGCACGTCG ((((((((.((((((((((+)))))))))).)))))))),57.6 °C
9,CGACGTGCGCGATGTGCTG+CAGCACATACCGCACGTCG (((((((((..((((((((+))))))))..))))))))),53.8 °C
10,CGACGTGCAGGATGTGCTG+CAGCACATCCCGCACGTCG ((((((((.((((((((((+)))))))))).)))))))),59 °C
11,CGACGTGCGGGATGTGCTG+CAGCACATGAAGCACGTCG ((((((((...((((((((+))))))))...)))))))),53.7 °C
12,CGACGTGCCTAATGTGCTG+CAGCACATAGTGCACGTCG ((((((((...((((((((+))))))))...)))))))),47.2 °C
13,CGACGTGCTATATGTGCTG+CAGCACATGGGGCACGTCG ((((((((...((((((((+))))))))...)))))))),51 °C
14,CGACGTGCGTCATGTGCTG+CAGCACATCCTGCACGTCG ((((((((...((((((((+))))))))...)))))))),48.9 °C
15,CGACGTGCATAATGTGCTG+CAGCACATGGCGCACGTCG ((((((((...((((((((+))))))))...)))))))),53 °C
16,CGACGTGCGTGATGTGCTG+CAGCACATATGGCACGTCG ((((((((...((((((((+))))))))...)))))))),50 °C
17,CGACGTGCAGGATGTGCTG+CAGCACATATAGCACGTCG ((((((((...((((((((+))))))))...)))))))),50.6 °C
18,CGACGTGCCAAATGTGCTG+CAGCACATAAGGCACGTCG (((((((((..((((((((+))))))))..))))))))),54.4 °C
19,CGACGTGCGTGATGTGCTG+CAGCACATGAAGCACGTCG ((((((((.(.((((((((+)))))))).).)))))))),54 °C
20,CGACGTGCACAATGTGCTG+CAGCACATAAAGCACGTCG ((((((((...((((((((+))))))))...)))))))),47.4 °C
21,CGACGTGCCGGATGTGCTG+CAGCACATAATGCACGTCG ((((((((...((((((((+))))))))...)))))))),48.6 °C
22,CGACGTGCGTAATGTGCTG+CAGCACATGTGGCACGTCG ((((((((...((((((((+))))))))...)))))))),51.8 °C
23,CGACGTGCCGTATGTGCTG+CAGCACATGTCGCACGTCG ((((((((...((((((((+))))))))...)))))))),49 °C
24,CGACGTGCGACATGTGCTG+CAGCACATGGGGCACGTCG ((((((((..(((((((((+)))))))))..)))))))),58.4 °C

row,Substance,Tm
1,CGACGTGCCGCATGTGCTG+CAGCACATGTCGCACGTCG ((((((((..(((((((((+)))))))))..)))))))),54.3 °C
2,CGACGTGCATGATGTGCTG+CAGCACATAAGGCACGTCG ((((((((.(.((((((((+)))))))).).)))))))),52.8 °C
3,CGACGTGCCTTATGTGCTG+CAGCACATTCGGCACGTCG (((((((((..((((((((+))))))))..))))))))),53 °C
4,CGACGTGCCCAATGTGCTG+CAGCACATGTAGCACGTCG ((((((((...((((((((+))))))))...)))))))),50.6 °C
5,CGACGTGCTTGATGTGCTG+CAGCACATGCTGCACGTCG ((((((((...((((((((+))))))))...)))))))),48.1 °C
6,CGACGTGCACGATGTGCTG+CAGCACATAGGGCACGTCG ((((((((.(.((((((((+)))))))).).)))))))),54.9 °C
7,CGACGTGCCGTATGTGCTG+CAGCACATCTGGCACGTCG (((((((((..((((((((+))))))))..))))))))),55.3 °C
8,CGACGTGCCGCATGTGCTG+CAGCACATGAAGCACGTCG ((((((((..(((((((((+)))))))))..)))))))),53.8 °C
9,CGACGTGCCAAATGTGCTG+CAGCACATGTGGCACGTCG ((((((((((.((((((((+)))))))).)))))))))),58.5 °C
10,CGACGTGCCTTATGTGCTG+CAGCACATAGAGCACGTCG ((((((((..(((((((((+)))))))))..)))))))),51.8 °C
11,CGACGTGCCTGATGTGCTG+CAGCACATCACGCACGTCG ((((((((.((((((((((+)))))))))).)))))))),55.5 °C
12,CGACGTGCTACATGTGCTG+CAGCACATCTGGCACGTCG ((((((((.(.((((((((+)))))))).).)))))))),49.9 °C
13,CGACGTGCTATATGTGCTG+CAGCACATGGTGCACGTCG ((((((((...((((((((+))))))))...)))))))),47.7 °C
14,CGACGTGCATAATGTGCTG+CAGCACATCGAGCACGTCG ((((((((...((((((((+))))))))...)))))))),48.5 °C
15,CGACGTGCTCTATGTGCTG+CAGCACATACTGCACGTCG ((((((((..(((((((((+)))))))))..)))))))),49.5 °C
16,CGACGTGCTGGATGTGCTG+CAGCACATACTGCACGTCG ((((((((.(.((((((((+)))))))).).)))))))),56.3 °C
17,CGACGTGCCCAATGTGCTG+CAGCACATCCAGCACGTCG ((((((((...((((((((+))))))))...)))))))),49 °C
18,CGACGTGCTTCATGTGCTG+CAGCACATCACGCACGTCG ((((((((.(.((((((((+)))))))).).)))))))),47.8 °C
19,CGACGTGCAGTATGTGCTG+CAGCACATGATGCACGTCG (((((((((..((((((((+))))))))..))))))))),55 °C
20,CGACGTGCCCTATGTGCTG+CAGCACATTGAGCACGTCG ((((((((.(.((((((((+)))))))).).)))))))),51.8 °C
21,CGACGTGCTGAATGTGCTG+CAGCACATTCGGCACGTCG ((((((((.((((((((((+)))))))))).)))))))),60.6 °C
22,CGACGTGCTGTATGTGCTG+CAGCACATGTCGCACGTCG ((((((((...((((((((+))))))))...)))))))),49.3 °C
23,CGACGTGCTGTATGTGCTG+CAGCACATCGTGCACGTCG ((((((((...((((((((+))))))))...)))))))),46.4 °C
24,CGACGTGCTCGATGTGCTG+CAGCACATCGGGCACGTCG ((((((((.((((((((((+)))))))))).)))))))),62.2 °C

row,Substance,Tm
1,CGACGTGCCGGATGTGCTG+CAGCACATGACGCACGTCG ((((((((...((((((((+))))))))...)))))))),46.3 °C
2,CGACGTGCTTCATGTGCTG+CAGCACATCGGGCACGTCG ((((((((...((((((((+))))))))...)))))))),48.9 °C
3,CGACGTGCGTGATGTGCTG+CAGCACATAATGCACGTCG ((((((((.(.((((((((+)))))))).).)))))))),52.9 °C
4,CGACGTGCAGCATGTGCTG+CAGCACATGTTGCACGTCG (((((((((.(((((((((+))))))))).))))))))),58.7 °C
5,CGACGTGCGATATGTGCTG+CAGCACATTGGGCACGTCG ((((((((...((((((((+))))))))...)))))))),50.3 °C
6,CGACGTGCGAAATGTGCTG+CAGCACATTGCGCACGTCG (((((((((.(((((((((+))))))))).))))))))),60.2 °C
7,CGACGTGCGAGATGTGCTG+CAGCACATGTTGCACGTCG ((((((((.(.((((((((+)))))))).).)))))))),54.3 °C
8,CGACGTGCCCAATGTGCTG+CAGCACATATAGCACGTCG ((((((((...((((((((+))))))))...)))))))),48.5 °C
9,CGACGTGCGTGATGTGCTG+CAGCACATTTGGCACGTCG ((((((((...((((((((+))))))))...)))))))),50.4 °C
10,CGACGTGCTGAATGTGCTG+CAGCACATGGTGCACGTCG ((((((((...((((((((+))))))))...)))))))),50.9 °C
11,CGACGTGCAGAATGTGCTG+CAGCACATTTTGCACGTCG (((((((((.(((((((((+))))))))).))))))))),57 °C
12,CGACGTGCACAATGTGCTG+CAGCACATACGGCACGTCG ((((((((...((((((((+))))))))...)))))))),44.7 °C
13,CGACGTGCGTAATGTGCTG+CAGCACATTCTGCACGTCG ((((((((..(((((((((+)))))))))..)))))))),53.4 °C
14,CGACGTGCGCGATGTGCTG+CAGCACATTATGCACGTCG ((((((((...((((((((+))))))))...)))))))),50 °C
15,CGACGTGCGAGATGTGCTG+CAGCACATACGGCACGTCG ((((((((...((((((((+))))))))...)))))))),50.1 °C
16,CGACGTGCCCCATGTGCTG+CAGCACATAGAGCACGTCG ((((((((.(.((((((((+)))))))).).)))))))),48.7 °C
17,CGACGTGCAGCATGTGCTG+CAGCACATCACGCACGTCG ((((((((...((((((((+))))))))...)))))))),46.7 °C
18,CGACGTGCGGCATGTGCTG+CAGCACATCATGCACGTCG ((((((((...((((((((+))))))))...)))))))),51.2 °C
19,CGACGTGCGGAATGTGCTG+CAGCACATGCTGCACGTCG ((((((((.(.((((((((+)))))))).).)))))))),54.7 °C
20,CGACGTGCAGTATGTGCTG+CAGCACATTGGGCACGTCG ((((((((...((((((((+))))))))...)))))))),48.8 °C
21,CGACGTGCGCAATGTGCTG+CAGCACATAGCGCACGTCG ((((((((((.((((((((+)))))))).)))))))))),61.2 °C
22,CGACGTGCGTGATGTGCTG+CAGCACATCTTGCACGTCG ((((((((..(((((((((+)))))))))..)))))))),55.6 °C
23,CGACGTGCCGCATGTGCTG+CAGCACATTATGCACGTCG ((((((((...((((((((+))))))))...)))))))),46.4 °C
24,CGACGTGCGAAATGTGCTG+CAGCACATTACGCACGTCG (((((((((.(((((((((+))))))))).))))))))),58.6 °C
